Legend:
Assay type in all cases: cell-based
[1] = system: HeLa cells; experiment: Parkin colocalization with mitochondria scored by confocal microscopy; settings: HeLa cells, 2 mM paraquat, 24 hours
Protocol: Cultured cells seeded in borosilicate chamber slides (Thermo Fisher Scientific) were transfected or cotransfected with YFP-Parkin, ECFP-Parkin, mCherry-Parkin, DsRed-Mito (Clontech Laboratories, Inc.), pcDNA3.1 (Invitrogen), vMIA, and/or Drp1K38A constructs using Fugene 6 (Roche). Parkin-myc was a gift from M. Cookson (National Institutes of Health, Bethesda, Md.). Cells were fixed 12-24 hours after transfection with 4% paraformaldehyde in PBS. Cells were stained with following primary antibodies: mouse monoclonal cytochrome c (BD), rabbit polyclonal Tom20 (Santa Cruz Biotechnology, Inc.), mouse monoclonal Parkin PRK8 (Santa Cruz Biotechnology, Inc.), rabbit polyclonal PMP70 (Invitrogen), and/or mouse monoclonal TRAP1 (Abcam); and with the following secondary antibodies: mouse and/or rabbit Alexa 488, 594, and 633 (Invitrogen). For assessment of mitochondrial membrane potential, cells were pulsed with 50 nM Mito-Tracker red (Invitrogen) for 15 min, washed, and incubated for an additional 10 minutes before fixation or imaging. For assessment of cell metabolic potential, cell nuclei were stained with Hoechst 33342 (Invitrogen).
Fixed cells and live cells in the FLIP assay were imaged using an inverted microscope (LSM510 Meta; Carl Zeiss, Inc.) with a 63×/1.4 oil DIC Plan Apo objective at 25° C. and 37° C., respectively. For the FLIP assay, a bleach region of interest (ROI) occupying approximately one eighth of the cell was positioned over a relatively mitochondria-free portion of the cytosol. Cells were alternately bleached (488 nm using a 30-mW argon laser at 75% power and 100% transmission for 150 iterations) and imaged (488 nm at 75% power and 2% transmission) for 10 minutes (—60 cycles over the length of the experiment). Two channel prebleach and postbleach images were obtained with 488 and 594 lasers to assess the position of mitochondria before and after bleaching. Circular ROIs with diameters of ˜1 and 5 μm, respectively, were placed over the mitochondria and cytosol of the target cell, and an ROI of 10 μm was placed over the control cell. Imaging of YFP-Parkin translocation in live HeLa cells was performed on a live cell imager system (UltraView LCI; PerkinElmer) at 35° C. with a 100×/1.45 α-Plan-Fluor objective.
Image contrast and brightness were adjusted in Photoshop (Adobe). Colocalization was assessed with line scans using MetaMorph (MDS Analytical Technologies). For analysis of mitochondrial membrane potential in cells, mitochondrial voxels in each image (the cytochrome c channel threshold was ≧400 au) were segregated into Parkin-positive (the YFP-Parkin channel threshold was ≧1,100 au) or Parkin-negative subsets, and MitoTracker intensity for each voxel was measured using Volocity software (Improvision). For each cell, the mean MitoTracker intensity per voxel was calculated for the Parkin-positive and Parkin-negative subsets. The difference in mean Mito-Tracker intensity between the Parkin-positive and Parkin-negative subsets was calculated using a paired t test. Western blotting HeLa cells stably expressing YFP-Parkin, HEK293 cells, and rat cortical neurons 2 days in vitro were harvested and fractionated as described previously (Karbowski et al., J. Cell Biol. 178: 71-84, 2007). Samples were run on SDS-PAGE and immunoblotted with the following antibodies: polyclonal rabbit anti-GFP (Invitrogen), mouse monoclonal anti-Parkin (PRK8), and mouse monoclonal anti-Porin 31HL (EMD).
(§1) Confocal microscopy of fixed samples, scoring of Parkin recruitment and Parkininduced mitophagy, and live cell imaging were performed as described previously (Narendra (2008) J Cell Biol 183: 795-803). Experiments in Mfn1/2 null cells were performed as described previously with minor modifications.
Confocal microscopy of fixed samples, scoring of Parkin recruitment and Parkin-induced mitophagy, and live cell imageing were performed as described previously (Narendra (2008) J Cell Biol 183: 795-803). […]

[2] = system: HeLa cells; experiment: PINK1-YFP imaging and colocalization in HeLa cells; settings: 2 mM paraquat, 16 hours
Protocol: as §1
as §1, with “Parkin-induced” for “Parkininduced”, “imageing” for “imaging”, “modifications described in the supplemental methods (Narendra (2008) J Cell Biol 183: 795-803).” for “modifications.”

[3] = system: PINK1; experiment: PINK1 cleavage pattern by immunoblotting (Examples 4 and 5); settings: HeLa; for levels of FL and/or ΔMTS-PINK1: absence of CCCP or MG132; for 52 kDa fragment of PINK1: absence of MG132 treatment
Protocol: PARL siRNA (5′-[…]-C′) were synthesized by Qiagen. In order to achieve efficient knockdown of PARL, cells were transfected twice over a period of 96 hrs. PINK1-V5/His was a gift from M. Cookson (National Institute of Health, Bethesda, Md.). For site-directed mutagenesis, primers were designed using Primer X, web-based mutagenic primer design program (http://www.bioinformatics.org/primerx/), and produced by Operon. 15 rounds of PCR reactions were performed using Phusion DNA polymerase (Finnzymes) and WT PINK1-YFP constructs as a template. Introduction of point mutations were confirmed by sequencing.
(§2) Cells were cultured in borosilicated chamber slides for imaging, 6-well plates for whole cell lysates, and 100 or 150 mm culture dish for subcellular fractionation. One day after seeding, cells were transfected with indicated constructs using Fugene HD (Roche) or Lipofectamine 2000 (Invitrogen) according to the manufacturer's guidelines.
For whole cell lysates, cells were washed twice with cold-PBS and then directly lysed with 1× sample buffer. For mitochondrial fraction, cells were fractionated as described previously (Narendra et al., 2008) and below, and then mitochondrial pellets were lysed with 1× sample buffer. 20 μg of proteins were separated on 4-12% Tris-glycine or Bis-Tris SDS-PAGE. The following antibodies were used: anti-PINK1 (Novus Biologicals), anti-PARL N-terminal (a gift from L. Pellegrini), anti-Tom20 (Santa Cruz Biotechnology, Inc.), anti-AIF (Sigma-Aldrich) and antiHtra2/Omi (R&D systems) polyclonal antibodies; anti-VDAC (Calbiochem), anti-Tubulin, anti-βactin (Sigma-Aldrich), anti-Hsp70 (Cell Signaling Technologies), anti-Tom20 (BD), anti-Tim23 and anti-cytochrome C (BD) monoclonal antibodies.

[4] = system: HeLa cells; experiment: Mitochondrial translocation of Parkin by imaging (Examples 4 and 5); settings: HeLa cells or PINK1 KO cells, without CCCP
Protocol: as §2
For immunocytochemistry, cultured cells in borosilicated chamber slides were fixed with 4% paraformaldehyde in PBS (USB) and permeabilized with the indicated detergent. After 30 min blocking with 10% BSA in PBS, cells were stained with the following primary antibodies: antiTom20 polyclonal antibody (Santa Cruz Biotechnology, Inc.) and anti-cytochrome C monoclonal antibody (BD), or anti-Tom20 monoclonal antibody (BD) and anti-GFP polyclonal antibody (Invitrogen) and then with the following secondary antibodies: goat anti-mouse/rabbit IgG antibody conjugated with Alexa Fluor 594/647, respectively. In case of live cell imaging, cells were pulsed with 600 nM TMRE for 5 min to evaluate mitochondrial membrane potential or 10 nM Mitotracker Red for 30 min to see the mitochondrial morphology. Cells were imaged using an inverted microscope (LSM510 Meta; Carl Zeiss) with 63×/1.4 oil DIC Plan Apo objective. Image contrast and brightness were adjusted in LSM image browser (Carl Zeiss).

Row | Molecule | levels of FL and/or ΔMTS-PINK1 [3] | 52 kDa fragment of PINK1 [3] | mitochondrial translocation of Parkin induced by PINK1 mutant [4] | further results
1 | C[n+]1ccc(-c2cc[n+](C)cc2)cc1 [paraquat, reference compound] | – | – | – | YFP-Parkin recruitment to mitochondria [1]: recruited to depolarized mitochondria; YFP-Parkin recruitment to mitochondria ([1]; listed as Paraquat): triggers Parkin recruitment to mitochondria; average pearson coefficient PINK1-YFP / MTR [2]: 0.26±0.13; average pearson coefficient PINK1-YFP / cytochrome c [2]: 0.58±0.11
2 | G97F: PINK1-YFP transmembrane domain point mutant (protein, UniProt Q9BXM7 78-581, looked up, variant G97F, YFP fusion, PINK1-YFP transmembrane domain point mutant) Serine/threonine-protein …: AARLQRQFVVRAWGCAGPCFRAVFLAFGLGLGLIEEKQAESRRAVSACQEIQAIFTQKSKPGPDPLDTRRLQGFRLEEYLIGQSIGKGCSAAVYEATMPTLPQNLEVTKSTGLLPGRGPGTSAPGEGQERAPGAPAFPLAIKMMWNISAGSSSEAILNTMSQELVPASRVALAGEYGAVTYRKSKRGPKQLAPHPNIIRVLRAFTSSVPLLPGALVDYPDVLPSRLHPEGLGHGRTLFLVMKNYPCTLRQYLCVNTPSPRLAAMMLLQLLEGVDHLVQQGIAHRDLKSDNILVELDPDGCPWLVIADFGCCLADESIGLQLPFSSWYVDRGGNGCLMAPEVSTARPGPRAVIDYSKADAWAVGAIAYEIFGLVNPFYGQGKAHLESRSYQEAQLPALPESVPPDVRQLVRALLQREASKRPSARVAANVLHLSLWGEHILALKNLKLDKMVGWLLQQSAATLLANRLTEKCCVETKMKMLFLANLECETLCQAALLLCSWRAAL | dramatically increased levels | – | – | –
3 | G105W: PINK1-YFP transmembrane domain point mutant (protein, UniProt Q9BXM7 78-581, looked up, variant G105W, C-terminal YFP fusion, PINK1-YFP transmembrane domain point mutant) Serine/threonine-protein …: AARLQRQFVVRAWGCAGPCGRAVFLAFWLGLGLIEEKQAESRRAVSACQEIQAIFTQKSKPGPDPLDTRRLQGFRLEEYLIGQSIGKGCSAAVYEATMPTLPQNLEVTKSTGLLPGRGPGTSAPGEGQERAPGAPAFPLAIKMMWNISAGSSSEAILNTMSQELVPASRVALAGEYGAVTYRKSKRGPKQLAPHPNIIRVLRAFTSSVPLLPGALVDYPDVLPSRLHPEGLGHGRTLFLVMKNYPCTLRQYLCVNTPSPRLAAMMLLQLLEGVDHLVQQGIAHRDLKSDNILVELDPDGCPWLVIADFGCCLADESIGLQLPFSSWYVDRGGNGCLMAPEVSTARPGPRAVIDYSKADAWAVGAIAYEIFGLVNPFYGQGKAHLESRSYQEAQLPALPESVPPDVRQLVRALLQREASKRPSARVAANVLHLSLWGEHILALKNLKLDKMVGWLLQQSAATLLANRLTEKCCVETKMKMLFLANLECETLCQAALLLCSWRAAL | – | stabilize the 52 kDa fragment | did not recruit Parkin | –
4 | A103W: PINK1-YFP transmembrane domain point mutant (protein, UniProt Q9BXM7 78-581, looked up, variant A103W, C-terminal YFP fusion, PINK1-YFP transmembrane domain point mutant) Serine/threonine-protein …: AARLQRQFVVRAWGCAGPCGRAVFLWFGLGLGLIEEKQAESRRAVSACQEIQAIFTQKSKPGPDPLDTRRLQGFRLEEYLIGQSIGKGCSAAVYEATMPTLPQNLEVTKSTGLLPGRGPGTSAPGEGQERAPGAPAFPLAIKMMWNISAGSSSEAILNTMSQELVPASRVALAGEYGAVTYRKSKRGPKQLAPHPNIIRVLRAFTSSVPLLPGALVDYPDVLPSRLHPEGLGHGRTLFLVMKNYPCTLRQYLCVNTPSPRLAAMMLLQLLEGVDHLVQQGIAHRDLKSDNILVELDPDGCPWLVIADFGCCLADESIGLQLPFSSWYVDRGGNGCLMAPEVSTARPGPRAVIDYSKADAWAVGAIAYEIFGLVNPFYGQGKAHLESRSYQEAQLPALPESVPPDVRQLVRALLQREASKRPSARVAANVLHLSLWGEHILALKNLKLDKMVGWLLQQSAATLLANRLTEKCCVETKMKMLFLANLECETLCQAALLLCSWRAAL | – | stabilize the 52 kDa fragment | did not recruit Parkin | –
5 | R98F: PINK1-YFP transmembrane domain point mutant (protein, UniProt Q9BXM7 78-581, looked up, variant R98F, YFP fusion, PINK1-YFP transmembrane domain point mutant) Serine/threonine-protein …: AARLQRQFVVRAWGCAGPCGFAVFLAFGLGLGLIEEKQAESRRAVSACQEIQAIFTQKSKPGPDPLDTRRLQGFRLEEYLIGQSIGKGCSAAVYEATMPTLPQNLEVTKSTGLLPGRGPGTSAPGEGQERAPGAPAFPLAIKMMWNISAGSSSEAILNTMSQELVPASRVALAGEYGAVTYRKSKRGPKQLAPHPNIIRVLRAFTSSVPLLPGALVDYPDVLPSRLHPEGLGHGRTLFLVMKNYPCTLRQYLCVNTPSPRLAAMMLLQLLEGVDHLVQQGIAHRDLKSDNILVELDPDGCPWLVIADFGCCLADESIGLQLPFSSWYVDRGGNGCLMAPEVSTARPGPRAVIDYSKADAWAVGAIAYEIFGLVNPFYGQGKAHLESRSYQEAQLPALPESVPPDVRQLVRALLQREASKRPSARVAANVLHLSLWGEHILALKNLKLDKMVGWLLQQSAATLLANRLTEKCCVETKMKMLFLANLECETLCQAALLLCSWRAAL | dramatically increased levels | – | did not induce | –

Reference: US20120277286A1, “COMPOSITIONS AND METHODS FOR THE TREATMENT OR PREVENTION OF MITOCHONDRIAL DISEASES” (The Government of the USA, as represented by the Secretary, …, priority 2009, published 2012)
